# Measured values from article PMC3087119 (Human Mutation, 2011).
# B1: βA3-crystallin (natural protein)
# chain: METQAEQQELETLPTTKMAQTNPTPGSLGPWKITIYDQENFQGKRMEFTSSCPNVSERSFDNVRSLKVESGAWIGYEHTSFCGQQFILERGEYPRWDAWSGSNAYHIERLMSFRPICSANHKESKMTIFEKENFIGRQWEISDDYPSLQAMGWFNNEVGSMKIQSGAWVCYQYPGYRGYQYILECDHHGGDYKHWREWGSHAQTSQIQSIRRIQQ
# Molecular target: the molecule itself
# Test: static light scattering
protein,measurement,value
B1,stoichiometry N,2
